Values of other authors as cited in article PMC6600238.
pKd: −log10 of the molar value.

Biological target: vitronectin (Homo sapiens) (UniProt P04004)
Sequence of UniProt P04004 (P04004 399-478): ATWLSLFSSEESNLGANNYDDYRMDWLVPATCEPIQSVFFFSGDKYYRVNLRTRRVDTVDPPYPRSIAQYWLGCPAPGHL

- pKd: 5.40
Substance: uPAR (from UniProt Q03405)
